Results taken from PMC9605497, “Potential of Epidermal Growth Factor-like Peptide from the Sea Cucumber Stichopus horrens to Increase the Growth of Human Cells: In Silico Molecular Docking Approach” (Marine Drugs, 2022).

Target: T1, human epidermal growth factor receptor (human (endogenous in melanoma cells …, UniProt P00533 25-1210))
T1 construct: epidermal growth factor receptor, human, as present on human melanoma cells (CRL-1872); The cells were not transfected; also called hEGFR; EGFR; source: endogenous, human melanoma cells (CRL-1872, ATCC), formalin-fixed in a 96-well plate
Assay: ligand binding assay on fixed cells (biotinylated ligand, NeutrAvidin-HRP, ABTS, absorbance at 405 nm); formalin-fixed human melanoma cells in a 96-well plate; biotinylated peptide at 10, 50 and 500 nM in MEM with 0.1% BSA and 200 mM HEPES, 37 °C, 1 h; washes with cold PBS and 0.3 M NaCl; triplicates
Conditions: one partner purified

increase of the relative binding percentage on a tenfold higher concentration: 4%
B1: Recombinant human EGF (ligand)
chain: MNSDSECPLSHDGYCLHDGVCMYIEALDKYACNCVVGYIGERCQYRDLKWWELR
modifications: biotin (conjugated with NHS-biotin; sites not stated)
notes: also called rhEGF; source: bought: Thermo Scientific; biotinylated with NHS-biotin
